Assay [1] concerns the target cynomolgous IL-17A (cynomolgous). Briefly: binding ELISA according to example 2; mouse IL17 antibodies compared (Mab 317 = 100). For orientation: In an ELISA, binding on a coated surface is turned into a signal by an enzyme label.
Assay [2] addresses recombinant human IL-17 (Peprotech #200-17) (human) (UniProt Q16552). The description is as above.
In the next assay the target is Human IL17B (human) (UniProt Q9UHF5). Nature of the assay: ELISA, coated IL-17 subtype, antibody 10 µg/ml, OD 405/492 nm.
In the next assay the target is Human IL17C (human) (UniProt Q9P0M4). The description is as above.
Another assay addresses Human IL17E (human) (UniProt Q9H293). The description is as above.
In another assay the target is Human IL17F (human) (UniProt Q96PD4). The description is as above.
The target of assay [3] is recombinant human IL-17 (Peprotech #200-17) (human) (UniProt Q16552). Nature of the assay: ELISA, coated IL-17 subtype 0.5 µg/ml, antibody 10 µg/ml, OD 405/492 nm.
Assay [4] deals with cynomolgous IL-17A (cynomolgous). Nature of the assay: binding ELISA according to example 2; human and humanized IL17 antibodies compared (NVP-AIN-497 = 100).
The target of assay [5] is recombinant human IL-17 (Peprotech #200-17) (human) (UniProt Q16552). The assay is described as above.
Assay [6] shares this target. Nature of the assay: cell-based or functional assay.
Another assay deals with Human IL17D (human) (UniProt Q8TAD2). Nature of the assay: ELISA, coated IL-17 subtype, antibody 10 µg/ml, OD 405/492 nm.
Chain of Human IL17D (human) (Q8TAD2 16-202 limits assumed): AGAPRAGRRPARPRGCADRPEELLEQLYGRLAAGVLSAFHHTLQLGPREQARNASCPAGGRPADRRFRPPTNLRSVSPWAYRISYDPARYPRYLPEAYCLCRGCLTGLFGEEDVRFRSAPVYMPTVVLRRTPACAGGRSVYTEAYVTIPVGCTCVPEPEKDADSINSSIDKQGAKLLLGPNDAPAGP

Chain of recombinant human IL-17 (Peprotech #200-17) (human) (Q16552 20-155 limits assumed): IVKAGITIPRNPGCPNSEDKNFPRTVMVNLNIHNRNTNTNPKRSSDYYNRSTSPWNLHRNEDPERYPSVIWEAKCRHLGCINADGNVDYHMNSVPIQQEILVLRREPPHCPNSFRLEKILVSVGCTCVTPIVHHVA
Chain of Human IL17B (human) (Q9UHF5 21-180 limits assumed): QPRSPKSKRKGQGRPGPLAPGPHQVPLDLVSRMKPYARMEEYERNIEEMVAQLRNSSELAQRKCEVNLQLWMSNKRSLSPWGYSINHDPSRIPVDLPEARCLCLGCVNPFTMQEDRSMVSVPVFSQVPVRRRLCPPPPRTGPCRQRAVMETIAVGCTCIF
Chain of Human IL17F (human) (Q96PD4 31-163 limits assumed): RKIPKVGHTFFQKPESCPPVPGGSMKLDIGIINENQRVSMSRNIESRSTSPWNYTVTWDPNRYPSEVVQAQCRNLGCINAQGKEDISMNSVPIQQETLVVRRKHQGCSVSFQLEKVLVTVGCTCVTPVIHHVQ
Chain of Human IL17C (human) (Q9P0M4 19-197 limits assumed): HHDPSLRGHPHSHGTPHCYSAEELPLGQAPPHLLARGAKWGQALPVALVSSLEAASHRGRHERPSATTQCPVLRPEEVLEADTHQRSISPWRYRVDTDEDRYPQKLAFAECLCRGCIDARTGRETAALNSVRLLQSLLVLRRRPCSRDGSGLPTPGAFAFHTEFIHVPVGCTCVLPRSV
Chain of Human IL17E (human) (Q9H293 33-177 limits assumed): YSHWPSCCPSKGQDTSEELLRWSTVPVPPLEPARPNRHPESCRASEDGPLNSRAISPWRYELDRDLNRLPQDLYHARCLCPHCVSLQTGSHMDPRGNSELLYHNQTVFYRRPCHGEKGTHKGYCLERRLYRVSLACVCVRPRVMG

eBio64CAP17 (antibody): the Relative binding to cynomolgous IL-17A in % in [1] was 124%. Moreover, the Relative binding to human IL-17A in % in [2] came to 122%.

As for NVP-AIN-497 (WO 2006/013107) (antibody), the Binding (IL-17A binding set as 100) (% of IL-17A binding) with Human IL17B (human) stood at 2; with Human IL17C (human) it was 2; with Human IL17E (human) it was 3; in the assay with Human IL17F (human), 62; in assay [3], 100. The same substance displayed a Relative binding to cynomolgous IL-17A in assay [4] of 100%. The Relative binding to human IL-17A in assay [5] was found to be 100%.

On to MAB 317 of R&D Systems (antibody), for which, in [6], the IL-6 Inhibition IC50 (nM) (CCD-25SK cells, IL-17A + TNF-alpha) came out at 2.8 nM. In assay [3], the Binding (IL-17A binding set as 100) (% of IL-17A binding) was found to be 100.

“Mab 16-7178-85 of eBioscience (antibody)”: the Binding (IL-17A binding set as 100) (% of IL-17A binding) amounted to 7 in the assay with Human IL17B (human); 97 in the assay with Human IL17C (human); 6 in the assay with Human IL17D (human); 5 with Human IL17E (human); 5 in the assay with Human IL17F (human); 100 in assay [3].

Source of the values: patent publication US20150132307A1.
